Source: the supplement of paper PMC10065799, “High-throughput profiling of sequence recognition by tyrosine kinases and SH2 domains using bacterial peptide display” (eLife, 2023)

Biological target: Hck (UniProt P08631)
Assay: phosphorylation enrichment, bacterial display (enrichment ratio); higher = better substrate or ligand; peptides without Tyr show the background
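Further: 11-residue human phosphosite peptides and single-mutation variants displayed on the E. coli surface, counted by deep sequencing, each peptide's frequency after selection divided by its frequency in the unselected input library; frequency after pTyr selection over input frequency; kinase dosed for 20-30% of maximal phosphorylation in three min.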

Chain of Hck (P08631 whole entry, looked up): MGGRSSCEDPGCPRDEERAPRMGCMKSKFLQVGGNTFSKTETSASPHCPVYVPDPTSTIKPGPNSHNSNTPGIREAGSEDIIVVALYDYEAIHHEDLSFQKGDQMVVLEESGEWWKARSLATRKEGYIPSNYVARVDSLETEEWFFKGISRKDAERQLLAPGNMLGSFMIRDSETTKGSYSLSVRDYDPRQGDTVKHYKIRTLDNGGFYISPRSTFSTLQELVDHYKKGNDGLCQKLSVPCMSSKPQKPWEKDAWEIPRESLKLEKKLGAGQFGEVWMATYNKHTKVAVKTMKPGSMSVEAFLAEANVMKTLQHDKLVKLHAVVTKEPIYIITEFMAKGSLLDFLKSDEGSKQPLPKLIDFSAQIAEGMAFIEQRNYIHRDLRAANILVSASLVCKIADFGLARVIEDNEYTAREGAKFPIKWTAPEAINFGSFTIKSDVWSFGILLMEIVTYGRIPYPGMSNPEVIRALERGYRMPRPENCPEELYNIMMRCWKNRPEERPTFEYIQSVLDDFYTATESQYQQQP

Q: With SLFPGYNFRFA [P2RX7_Y291_YF] as the sequence, how does the phosphorylation enrichment read?
A: 0.476

Q: For SVTCTYSPALS [TP53_Y126_N131S], which phosphorylation enrichment is on record?
A: 0.553

Q: With LQLLGHRPVYS [CHST6_Y358_Y358H] as the sequence, how does the phosphorylation enrichment read?
A: 0.512

Q: With TTKAKYKTPIY [PLD2_Y573_T577I] as the sequence, how does the phosphorylation enrichment read?
A: 0.789

Q: For DDDPEYRKFLE [UPF3B_Y160], which phosphorylation enrichment is on record?
A: 0.597

Q: How did the phosphorylation enrichment turn out when NFHRGYHLQVL [CD200R1L_Y138] was run?
A: 0.375

Q: Which phosphorylation enrichment does the source give for SKAYAYVHFDS [PABPC5_Y149_G146A] here?
A: 0.398

Q: With PTQLPYDHKWK [KIT_Y578_E583K] as the sequence, how does the phosphorylation enrichment read?
A: 0.397

Q: KNKNRSKNILP [PTPN11_Y279_Y279S] was tested. Which phosphorylation enrichment did it give?
A: 0.561

Q: ARMTNCGLPRF [TSPAN12_Y138_Y138C_YF] was tested. Which phosphorylation enrichment did it give?
A: 0.358

Q: Which phosphorylation enrichment does the source give for TRTEAYAVSSF here?
A: 0.359

Q: SHLEDYPFDAE [AKR1B10_Y310_N313D] was tested. Which phosphorylation enrichment did it give?
A: 0.448

Q: For YVGGFYGGCNE [CTSC_Y352], which phosphorylation enrichment is on record?
A: 0.984

Q: How did the phosphorylation enrichment turn out when EEGESYVCSSD [DCX_Y125] was run?
A: 0.694

Q: Which phosphorylation enrichment does the source give for EERNPYYSSAR [MCCC2_Y520_G517R] here?
A: 0.828

Q: For GMEIVYVYVKK [DNAI2_Y5], which phosphorylation enrichment is on record?
A: 0.899

Q: EYKDAYTFAAD [BRDT_Y335_K336T] was tested. Which phosphorylation enrichment did it give?
A: 0.548

Q: With PRAGVYPEKDQ [DNM2_Y626_L621P] as the sequence, how does the phosphorylation enrichment read?
A: 0.662

Q: For MSDVPYVMNRG [ACAT1_Y161_N158D], which phosphorylation enrichment is on record?
A: 0.358

Q: NQKGKYFNVER [ANAPC4_Y469_R465Q] was tested. Which phosphorylation enrichment did it give?
A: 0.449

Q: STTIHYNYMCN [TP53_Y234_C229S] was tested. Which phosphorylation enrichment did it give?
A: 0.543

Q: For FADIAYSYRHG [PAH_Y166_N167S], which phosphorylation enrichment is on record?
A: 0.568

Q: How did the phosphorylation enrichment turn out when FSGKAYADEEQ [CRIM1_Y826_R831Q] was run?
A: 0.565

Q: How did the phosphorylation enrichment turn out when DTLASYLDKVR [KRT12_Y139_R135T] was run?
A: 0.408

Q: KDHPDYEFQPR [SOX9_Y172_K173E_YF] was tested. Which phosphorylation enrichment did it give?
A: 0.504

Q: How did the phosphorylation enrichment turn out when ERDYTYDELLN [EIF2S2_Y176_E177D] was run?
A: 1.04

Q: Which phosphorylation enrichment does the source give for EQLQSYQAEII [KRT33A_Y268] here?
A: 0.518

Q: For EARRVYRDIIH [ALDH5A1_Y175_G176R], which phosphorylation enrichment is on record?
A: 0.325

Q: How did the phosphorylation enrichment turn out when LLVVVYKYRCY [PSEN1_Y154_L153V] was run?
A: 1.08

Q: How did the phosphorylation enrichment turn out when LSGVIYVILGK [PMP22_Y153_R157G] was run?
A: 0.885

Q: How did the phosphorylation enrichment turn out when KLFFHYNPKLC [INSR_Y457] was run?
A: 0.562

Q: How did the phosphorylation enrichment turn out when LAVNPYGPPDL was run?
A: 0.682

Q: For AAVDTYCRHNF [HLA-DRB1_Y107_YF], which phosphorylation enrichment is on record?
A: 0.501

Biological target: MERTK (UniProt Q12866)
Assay: as above

Chain of MERTK (Q12866 whole entry, looked up): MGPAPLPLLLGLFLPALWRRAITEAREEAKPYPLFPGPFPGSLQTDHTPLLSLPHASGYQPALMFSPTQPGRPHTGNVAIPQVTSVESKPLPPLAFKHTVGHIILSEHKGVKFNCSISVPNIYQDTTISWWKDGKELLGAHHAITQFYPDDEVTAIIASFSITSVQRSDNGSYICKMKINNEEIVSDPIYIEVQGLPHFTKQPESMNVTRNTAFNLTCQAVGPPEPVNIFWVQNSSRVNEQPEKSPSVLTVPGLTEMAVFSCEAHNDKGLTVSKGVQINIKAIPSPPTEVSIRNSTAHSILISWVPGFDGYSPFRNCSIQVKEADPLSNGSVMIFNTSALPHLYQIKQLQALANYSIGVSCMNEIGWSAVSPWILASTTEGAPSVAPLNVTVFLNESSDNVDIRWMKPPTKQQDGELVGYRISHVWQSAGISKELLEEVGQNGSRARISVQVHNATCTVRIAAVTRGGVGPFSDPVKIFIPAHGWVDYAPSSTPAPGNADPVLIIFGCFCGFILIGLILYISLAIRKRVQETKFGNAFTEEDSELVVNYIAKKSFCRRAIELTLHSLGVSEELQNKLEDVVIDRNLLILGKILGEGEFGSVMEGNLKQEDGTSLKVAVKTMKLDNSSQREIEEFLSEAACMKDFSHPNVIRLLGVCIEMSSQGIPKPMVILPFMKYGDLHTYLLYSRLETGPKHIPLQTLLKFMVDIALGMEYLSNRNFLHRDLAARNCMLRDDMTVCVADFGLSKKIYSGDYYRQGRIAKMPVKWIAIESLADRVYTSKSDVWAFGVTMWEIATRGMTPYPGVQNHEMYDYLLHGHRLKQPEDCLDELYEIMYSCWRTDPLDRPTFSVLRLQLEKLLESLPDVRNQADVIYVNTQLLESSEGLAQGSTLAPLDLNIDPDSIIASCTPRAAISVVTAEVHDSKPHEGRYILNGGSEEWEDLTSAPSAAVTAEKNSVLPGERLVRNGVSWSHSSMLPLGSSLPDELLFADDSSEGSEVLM

Q: With SLFPGYNFRFA [P2RX7_Y291_YF] as the sequence, how does the phosphorylation enrichment read?
A: 0.475

Q: For SVTCTYSPALS [TP53_Y126_N131S], which phosphorylation enrichment is on record?
A: 0.42

Q: For LQLLGHRPVYS [CHST6_Y358_Y358H], which phosphorylation enrichment is on record?
A: 0.374

Q: How did the phosphorylation enrichment turn out when TTKAKYKTPIY [PLD2_Y573_T577I] was run?
A: 0.574

Q: With DDDPEYRKFLE [UPF3B_Y160] as the sequence, how does the phosphorylation enrichment read?
A: 0.566

Q: Which phosphorylation enrichment does the source give for NFHRGYHLQVL [CD200R1L_Y138] here?
A: 0.351

Q: With SKAYAYVHFDS [PABPC5_Y149_G146A] as the sequence, how does the phosphorylation enrichment read?
A: 0.389

Q: How did the phosphorylation enrichment turn out when PTQLPYDHKWK [KIT_Y578_E583K] was run?
A: 0.28

Q: How did the phosphorylation enrichment turn out when KNKNRSKNILP [PTPN11_Y279_Y279S] was run?
A: 0.561

Q: How did the phosphorylation enrichment turn out when ARMTNCGLPRF [TSPAN12_Y138_Y138C_YF] was run?
A: 0.368

Q: For TRTEAYAVSSF, which phosphorylation enrichment is on record?
A: 0.406

Q: For SHLEDYPFDAE [AKR1B10_Y310_N313D], which phosphorylation enrichment is on record?
A: 0.369

Q: With YVGGFYGGCNE [CTSC_Y352] as the sequence, how does the phosphorylation enrichment read?
A: 0.682

Q: With EEGESYVCSSD [DCX_Y125] as the sequence, how does the phosphorylation enrichment read?
A: 0.58

Q: How did the phosphorylation enrichment turn out when EERNPYYSSAR [MCCC2_Y520_G517R] was run?
A: 0.468

Q: GMEIVYVYVKK [DNAI2_Y5] was tested. Which phosphorylation enrichment did it give?
A: 0.416

Q: For EYKDAYTFAAD [BRDT_Y335_K336T], which phosphorylation enrichment is on record?
A: 0.51

Q: For PRAGVYPEKDQ [DNM2_Y626_L621P], which phosphorylation enrichment is on record?
A: 0.511

Q: MSDVPYVMNRG [ACAT1_Y161_N158D] was tested. Which phosphorylation enrichment did it give?
A: 0.348

Q: How did the phosphorylation enrichment turn out when NQKGKYFNVER [ANAPC4_Y469_R465Q] was run?
A: 0.373

Q: How did the phosphorylation enrichment turn out when STTIHYNYMCN [TP53_Y234_C229S] was run?
A: 0.53

Q: Which phosphorylation enrichment does the source give for FADIAYSYRHG [PAH_Y166_N167S] here?
A: 0.46

Q: For FSGKAYADEEQ [CRIM1_Y826_R831Q], which phosphorylation enrichment is on record?
A: 0.552

Q: For DTLASYLDKVR [KRT12_Y139_R135T], which phosphorylation enrichment is on record?
A: 0.411

Q: How did the phosphorylation enrichment turn out when KDHPDYEFQPR [SOX9_Y172_K173E_YF] was run?
A: 0.319

Q: How did the phosphorylation enrichment turn out when ERDYTYDELLN [EIF2S2_Y176_E177D] was run?
A: 0.498

Q: Which phosphorylation enrichment does the source give for EQLQSYQAEII [KRT33A_Y268] here?
A: 0.45

Q: With EARRVYRDIIH [ALDH5A1_Y175_G176R] as the sequence, how does the phosphorylation enrichment read?
A: 0.403

Q: With LLVVVYKYRCY [PSEN1_Y154_L153V] as the sequence, how does the phosphorylation enrichment read?
A: 0.474

Q: How did the phosphorylation enrichment turn out when LSGVIYVILGK [PMP22_Y153_R157G] was run?
A: 0.771

Q: KLFFHYNPKLC [INSR_Y457] was tested. Which phosphorylation enrichment did it give?
A: 0.383

Q: LAVNPYGPPDL was tested. Which phosphorylation enrichment did it give?
A: 0.517

Q: AAVDTYCRHNF [HLA-DRB1_Y107_YF] was tested. Which phosphorylation enrichment did it give?
A: 0.497
